Here are results for 18 sequences from the DeepSol protein solubility set.

The data set is described as follows: soluble on expression in E. coli; label from the status in PepcDB or PDB records.
In the case of “MGSDKIHHHHHHMGACENRWTVAKALRFPGDALQTILVAAPRGDLSTFFSIECTKRVHTGRCVTTANALKVQAFHTTDVTEQVRATPGWQQQYRQMSPGYFSGELRCLGLDGVEVYEERLNTRVEQFFRAPSGSLAFCFDRSENSLYLLNEQSRNIWITPENYQEVAVVFDQAFLARHGLDPQRLEGLFMVPLGSGQNALFGSWLSATLTRLGEEGCPLQGQALAEQLLEDCLFILDNASQRLQGVALGRRDEERAIMHRVSEWAADCPEETLNLLELADVAGVSLRQLQQAFKAFTGMPPAHWLRLRRLNGARRDLLRGGGVTVAEVAMRWSFWHLGRFSESYRQLFKEFPSETLKRCRV”, the “soluble on expression in E. coli” value is reported as “not soluble”. Regarding “MNLKSFTRKVSSTRDHRLLAEAIFDQLENLFSPHAIAIFEDPLTNPRCSVSFSRGELYPIQKYPEIFWDWACQFDTSESIIPLAINTCNWNHTQDLGGDSYILMLDNTPIKRTYLLIQSVQARTAHNIYEESYDAMQLAAARWQCIRAEKNASQEMRHRDIREAQYVDEISQRERFIENMKLVQQVALEISNPDSLKDLYYKAVEALRERLGFDRTTLMLLDMKKRSFSGTYGTDESGITIDEFHTQYDLHQLSEEYIAALSSLESNLVIIEDAPIYTAGKVVGQGWNAMLILRDGNEPFGWFALDNFIHRKPITAYQKQMLDSFGSLFSQIYIRKRQEQNVRMLHSSMVELSRCTTVSDVCKSAVTFAIKNLGIDRMAVFLTDENCSYMQGTWGTDIQGNVVDESYFFGETQNFSLINLARAVPSEVAFEESVPIYHDCNIVG”, the “soluble on expression in E. coli” value was “not soluble”. Regarding “MAHHHHHHMLRNALSCFLEQLELARLTETLPSNIDYAELVAMVQQRLQGAPGKTLGVFEHLRAKEIRLPEPDNPDYAVASMSAPLTVFLFDIEGTTTPLPFVQKVLMPLAESRVEAYMAAHFPADQAFVDLLTAAAERPSSPLAKAQTAYSKAFTDALATSGARDWKDEAANEVTRSDFCAFFHHQIKRGADHAAVKVVQAAIWAEVFAEGKLQSPVFPDVNTFFRFVGGPAMAERTRIALYSSGSVAAQKLVMGHTSYGDLNPFITAYFDPLLVGTKLMPKSYMKIRTLLVEQLDIPPESMHIVFVTDNTSEASAAETSGAVESAILCVRPLNDWITFDTMLSINVPYIMSFTQLMQRNCVVDMAKLVSDTKECIKQHNIS”, the “soluble on expression in E. coli” value was “soluble”. In the case of “MGSDKIHHHHHHMNLRQLKYFLATAELGQVSRAASELSISQSSVTTAIRELEQSMGTTLFNRTAHGMDLTPTGRDLMSAARDVMEKVQIAQDIGQNHSDVTGTINIAATYTVCGYFLPYHLDRLSHRFPNLTINISELNRESIEEGLISNRFDVAVILTSNTSNPELATQTLMRSHRRLWVPQNHPLAGREFASFEDVAAQDYIMLTVDEAANTSMKYWGPTGLMPRVRMRTSSTEAVRSMVANGLGVTILSDMVYRPWSLEGRRISTVVMDREIPSMDVGLAWRRNQEMPNAARHFVDYFRNAYLSPQMAHTAWRG”, the “soluble on expression in E. coli” value is on record as “not soluble”.

For “MSLTRQMNILLVEDDDLDAMMIKRAMAQVAPDAHLIRATDGVEALEIVQSNRVEDPYFILLDVNMPRMNGHEFLKELRASSEHSDTMVFMFTTSESARDIARAYQERANGYIVKPHGKAAMNSILDTLQRYWTTCEEGHHHHHH”, the “soluble on expression in E. coli” value was “soluble”.

“MTAVVNIAAYKFVSIANPADLREPMLEQAGQRQLKGTVLLAPEGINLFLAGAADAIEGFLRWLRADARFADLQAKYSESARMPFRKLLVKVKREIIRMDHPAIRPEAGRAPAVDAATLRRWLAQGRDDQGRELVMLDTRNAFEVEVGTFRGALDWRIERFTQFPQAVRDNQAALAGKTVVSFCTGGIRCEKAAIYMAEAGIEHVYQLEGGILKYFEETDGAGFDGACFVFDERVALDAALAPQALEHHHHHH”: the “soluble on expression in E. coli” value is “soluble”.

In the case of “MKKIAVFADVQNLYYTVRQAYGCHFNYAALWADISKRGEIVHAFAYAIDRGDSKQQQFQQILRNLGFTVRLKPYIQRSDGSAKGEWDVGITIDIMDFAPQVDEVVLASGDGDFDMLLDRVISKHGVEAVAYGVPGLTANSLIRAASRYVPIEGALL”, the “soluble on expression in E. coli” value is on record as “soluble”. With “GMKVLPVKQYLIMENYNPDTIFNGIVKINSNEKTFDDEILAQIGGALHDIDESWELLLSFANTIRSNWEIKTPAYDIVRLIVKKLPYSSDIKDYIEEGLGNKNITLTMLTVRILVNCFNNENWGVKLLESNQVYKSIFETIDTEFSQASAKQSQNLAIAVSTLIFNYSALVTKGNSDLELLPIVADAINTKYGPLEEYQECEEAAYRLTVAYGNLATVEPTLRQFANSVTWLANIKRSYGNVPRFKDIFDDLS”, the “soluble on expression in E. coli” value is “soluble”. For “MKIGFIGAGKMAQALARGLINSGRITADNIIASSPKRDEVFLDQCKALGLNTTHDNAEVVQKSDVVFLAVKPVHVSKVASEIAPALSKEHLVVSIALGITIRNIESLLPTKSRVVRVMPNTPSVVRAGASAFAMGSACRDGDAETVEKLLSTVGFAVEVPEIHIDPVTGLSGSGPSYMFAVIEGLADGGVKVGLPRDLALKLAAYTLLGAAKMVLETGIHPAQLKDDVQSPAGSSVYGMHKLESGGLKGVLMDAVEAATNRSRATGDKALPRDFRNTEM”, the “soluble on expression in E. coli” value was “not soluble”.

Regarding “RLIRSVLCSSSAGFGQGFCSPSLRRHLSARFPRGHGNALANFSSCARSRVHAYSSASSATSVGVPVAKMRFIDIGANLLDEMYTGQYNDKPYHPPDLSAVLERAWAAGLEKLMITAGSLKEARAALELAKTDERLYCTVGCHPTRCKEFEDHPGGPEAYLQELLEVLKEGQALGKVVAVGECGLVATDYERLHFCDADTQKKYFEAQFRLAKESGLPMFLHLRAAADDFLDITGRHLGDFPRGGVVHSFDGTAEEAARVLAVPQLAIGINGCSLKTDDNLAVVGGLPLERIMLETDCPWCEIRPTHAGRKHVSAEALAGVTGAKDRKKFMPGCQVKS”, the “soluble on expression in E. coli” value was “not soluble”. Then “MNLLKTIEKVKANWGGKYFSIEFVKNPKKVVRDWRNSGGIVVHLTMYGIPIDNIMEKIINKNTKILVVVGSEKVEGWYYYNSDYNIAIGNQPHSEVAALAIFLDRIYKGGELNIQFSDAKLSIIPQERGKKVRKNE”, with “soluble”; and “MGSDKIHHHHHHMLERRHIARDISYSHSAETRPGRIMIRLMENTTGRLRLIKRAKGYDMEVASGRSFWDVIVERYGLSLDVVGGSLDAIPRDKPVILIANHPYGILDGLMMGHILSRTRCDFRMLAHQVFRKAEDLNKVILPIDFAETKEAMKVNLQTRKDALDYLGQGGAIGIFPGGTVSTASKPFAHPMDPGWRGFTARMVAKSDAVVVPLYFDGHTSRLFQIASHLHYTLRMGLLIKEFKKRVDTPVKVVIGEPIGRDVLDPLAKDSKAMMDFLRKATYELSPTPLKSYDYGFEFEEKHRA”, with “not soluble”. “MAHHHHHHMLKCVSRVFLGAKTVPLNPHVPFKLHTAGRDDLPPIPTTATYEPEKIKENLAMMIRIRRVEALADQSYKLKKIRGFCHLCIGQEAIPVGMENVLSRGDPVVTGYRDHGLFMTRGGTIEELFAELFGREGGCSKGKGGSMHMYRVKENFYGGNGIVGAQAPLGAGLAWRYALENRDKPSNVAVTFYGDGAANQGQVFEAMNIAALQRIPVIFCCENNHYGMGTREDRAAYQPQMYRRGDYIPGLRVDGMDVLAVQEGTRWAKEWCLAGKGPVVLEMDSYRYMGHSMSDPDSQYRTKNDIQEVRRTRDCIEKMKEFVVSEGIMTVEEIKQMEKDVKKEVDKELPPAEKQAITPLKELFTDIYCGEQYEHRTTQGTVYAKP”: the “soluble on expression in E. coli” value is “not soluble”. In the case of “MGHHHHHHSHMSHKNMKLKERVLIPVKQYPKFNFVGKILGPQGNTIKRLQEETGAKISVLGKGSMRDKAKEEELRKGGDPKYAHLNMDLHVFIEVFGPPCEAYALMAHAMEEVKKFLVPDMMDDICQEQFLELSYLNGVPEPS”, the “soluble on expression in E. coli” value is given as “not soluble”.

On to “MLRHSPSLWELVEEHVPLRERREVKRILGEAAVDLSLELRAEVAMLRALLQEARSSQAPSSRPISDPSSLLAPPPLLKDLLRQELRQLLQGLRHKAICEGRDQAQAWVQYSPRVLHFALEEPRCDLPEQEIFQMRGGGPSSGHRDLSIIKDQLNVSNIDQVARHLRGLLEEECHTLEREILILQRCLEEEYLRPCHPSEAALEPTLAELKEQKKAMEQELQASVGPSCVSPNHRQRPLGSSTQGLRPPLPLCGVAPLQCCLPAPPLEPYLRPRGQSATHRWGRQLQCSPREGPASTPMSSAAPQAPA”, for which the “soluble on expression in E. coli” value is “soluble”. Then “YFEVNITMSSGLWSQEKVTSPYWEERIFYLLLQECSVTDKQTQKLLKVPKGSIGQYIQDRSVGHSRIPSAKGKKNQIGLKILEQPHAVLFVDEKDVVEINEKFTELLLAITNCEERFSLFKNRNRLSKGLQIDVGCPVKVQLRSGEEKFPGVVRFRGPLLAERTVSGIFFGVELLEEGRGQGFTDGVYQGKQLFQCDEDCGVFVALDKLELIEDDDTALESDYAGPGDTMQVELPPLEINSRVSLKVGETIESGTVIFCDVLPGKESLGYFVGVDMDNPIGNWDGRFDGVQLCSFACVESTILLHINDIIPESVTQERRPPKLAFMSRGVGDKGSSSHNKPKATGSTSDPGNRNRSELFYTLNGSSVDSQPQSKSKNTWYIDEVAEDPAKSLTEISTDFDRSSPPLQPPPVNSLTTENRFHSLPFSLTKMPNTNGSIGHSPLSLSAQSVMEELNTAPVQESPPLAMPPGNSHGLEVGSLAEVKENPPFYGVIRWIGQPPGLNEVLAGLELEDECAGCTDGTFRGTRYFTCALKKALFVKLKSCRPDSRFASLQPVSNQIERCNSLAFGGYLSEVVEENTPPKMEKEGLEIMIGKKKGIQGHYNSCYLDSTLFCLFAFSSVLDTVLLRPKEKNDVEYYSETQELLRTEIVNPLRIYGYVCATKIMKLRKILEKVEAASGFTSEEKDPEEFLNILFHHILRVEPLLKIRSAGQKVQDCYFYQIFMEKNEKVGVPTIQQLLEWSFINSNLKFAEAPSCLIIQMPRFGKDFKLFKKIFPSLELNITDLLEDTPRQCRICGGLAMYECRECYDDPDISAGKIKQFCKTCNTQVHLHPKRLNHKYNPVSLPKDLPDWDWRHGCIPCQNMELFAVLCIETSHYVAFVKYGKDDSAWLFFDSMADRDGGQNGFNIPQVTPCPEVGEYLKMSLEDLHSLDSRRIQGCARRLLCDAYMCMYQSPTMSLYK”, with “soluble”; and “MGSDKIHHHHHHMIIEELHIVNFKSIAAADCRFSPKVNCLVGNNGMGKTNLLDALHFLSFCRSHLSVPDNMVVRHGEEMALLQGLYRDESGDGIELLLSIRPGKHKVLRRNKKEYERLSDHIGRFPLVIVSPQDYQLILGGSDERRRFMDQQLCQQDPRYLSALIQYNRHLQQRNTMLKQDRHDDALMDVLELQMGSYAAEICNKRSRFIEDFLPVFNDLYSDISGSAEKVSLSYRSHLADGIPLEELLRRSRPKDYLLGFSSCGVHKDELEMLLGGVLIRKIGSEGQNKTFLISMKLAQFRHQQLHGDETPILLLDDIFDKLDATRVERIIRLVGGNGFGQIFITDTNRKNLDEIIASWSEDYRLFKIENGQIFQ”, with “not soluble”.

“MSLVVKVKQKIPLKIKRMGINGEGIGFYQKTLVFVPGALKGEDIFCQITAVKRNFAEAKLLTVNKASKNRVKPACSVYETCGGCQIMHLAYPKQLDFKDDVIRQALKKFKPTGYEQFEIRPTLGMKKPDHYRAKLQFQLRSFGGTVKAGLFSQGSHRLVPIDNCLVQDQLTQDIINKITQLVDKYKLPIYNERKIAGIRTIMVRKAQASDQVQIIVVSSKEVRLANFIGELTKAFPQVKTVALNSNRSKSSEIYGDETEILWGQEAIHEEVLDYGFALSPRAFYQLNPQQTEVLYGEVVKALDVGSKDHIIDAYCGVGSIGFAFAGKVKSVRGMDIIPEAIEDAQKNAKAMGFDNAYYEAGKAEDIISKWYKQGYRADAVIVDPPRTGLDDKLLKTILHYQPKQMVYVSCNTSTLARDLVQLTKVYDVHYIQSVDMFPHTARTEAVVKLQKRVEGHHHHHH”: the “soluble on expression in E. coli” value is recorded as “not soluble”.
